± gives the standard error. This sample holds only a part of the variants without activity.
B1: glmS ribozyme (parent)
chain: AUAAAAGCGCCAGAACUACAGAAAUGUAGUUGACGAGGAGGAGGUUUAUCGAAUUUUCGGCGGAUGCCUCCAAA

Variants of: B1
Test: self-cleavage kobs at 2500 uM GlcN6P; higher = faster cleavage; RNA array
Conditions: with glucosamine-6-phosphate
Procedure, shortened: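 Sequenced MiSeq chips were the platform: E. coli RNA polymerase transcribed barcoded ribozyme variants on them in situ, and a hybridised Cy3 probe tracked these at 37 °C. After glucosamine-6-phosphate (40 μM to 10 mM) in HEPES/KCl/Mg(OAc)2 buffer was flowed in, tiles were imaged over ~14 h. Signals normalised to baseline and to non-cleaving reference variants were reduced to per-tile medians and fit to one- or two-exponential decays to obtain kobs. kcat and KM were derived through weighted Michaelis–Menten fits across concentrations.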

Variant	self-cleavage kobs at 2500 uM GlcN6P [s⁻¹]
AUAAAAGCGCCAGAACUACAGAAAUGUAGUUGACGAGGAGUAGGUUUAUCGAAUUUUAGGCGGGUGCCACCAAA	< 1e-05
AUAAAAGCCCCAGAACUACAGAAAUGUAGUUGACGAGGAGGAGGAUUAUCGAAUUUUCGGCGGAUGCCUCCAAA	< 1e-05
AUAAAAGCGCCAGAACUACAGAAAUGUAGUUGACGAGGAGGAGGUUUAUCGAAUUUUUGGCGGAAGCGUCCAAA	0.000102 ± 3.1e-05
AUAAAAGCGCCAGCACUACAGAAAUGUAGGUGACGAGGAGGGGGUUUAUCGACUUUUCGGCGGAUGCCUCCAAA	7.92e-05 ± 2.7e-05
AUAAAAGCGCCAGAACUACAGAAAUGUAGUUAACCAGGAGGAGCUUUAUCGAAUUGUCGGCGGAUGCCUCCAAA	< 1e-05
AUAAAAGCGCCAGAACUACAGAAAUGUAGUUGACGAGCAGGAGGUUCAACGAAUUUUCGGCGGAUGCCUCCAAA	< 1e-05
AUAAAAGCGCCAGAACUACAGAAAUGUAGUUAACGAGGAGGAGGUUUAUCGAAUUUCCGGCGGAUGCCUCCAAA	5.22e-05 ± 1.9e-05
AUAAAAGCGCCAGCACUACAGAAAUGUAGUUGACGAGGAGGAGGAUUAUCGAAUUUUCGGCGGUUGCCUCCAAA	4.3e-05 ± 1.9e-05
AUAAAAGCGCCAGAACUACAGAAAUGUAGUUGACGAGGAGGAGGUUUAACGAAGUUUCGGCGGAUGCCUCCAAA	4.22e-05 ± 1.9e-05
AUAAAAGCGCCAGAACUACAGAAAUGUAGUUGACGACUAGGAGGUUUAUCAAAGUUUCGGCGGAUGCCUCCAAA	< 1e-05
AUAAAAGCGCCAUAACUACAGAAAUGUAGUUGACGAGGAGGAGGUUAAUCGAAUUUUCGGCGGAUGCCUCGAAA	5.89e-05 ± 1.7e-05
AUAAAAUCGCCAGAACUACAGAAAUGUAGUUCACGAGGAUGAGGGUUAUCGAAUUUUCGGCGGAUGCCUCCAAA	< 1e-05
AUAAAAGCGCCUGAACUACAGAAAUGUAGUGGACGAGGAGGAGGUUUAUCGAAUUUUGGGCGGAUGCCUCCAAA	7.42e-05 ± 2.7e-05
AUAAAAGCGCCACAACUACAGAAAUGUAGUUGACGAGGAGGAGGUUUAUCGAAUUUUCGGAGGAUGCGUCCAAA	< 1e-05
AUAAAAGCGCCGGAACUACAGAAAUGUAGUUGACGAGGAGGAUGUUUCUCGAAUUUUCGGCGGAUGCCGCCAAA	< 1e-05
AUAAAAGCGCCAGAACUACAGAAAUGUAGUUGACGAGGAGGACGUUAAUCGAAUUUUCGGCUGAUGCCUCUAAA	< 1e-05
AUAAAAGCACCAGAACUACAGAAAUGUAGUUGACGAGGAGGAGGUUUAUCUAAUUGUCGGCGCAUGCCUCCAAA	< 1e-05
AUAAAAGCGCCAGAACUACAGAAAUGUAGUUGCCGAGGAGGAGGUUUAUCGAAUUUUCGGCGGAUGCGUUCAAA	< 1e-05
AUAAAAGCGCAAGAACUACAGAAAUGUAGUUGACGAGGAGGAGGUUUAUUGAAUUUUCGGUGGAUGGCUCCAAA	0.000136 ± 5.6e-05

Variant	self-cleavage kobs at 2500 uM GlcN6P [s⁻¹]
AUAAAAGCGCCAGAACUACAGAAAUGUAGUUGACUAGGAGGAGGUUUGUGGAAUUUUCGGCGGAUGCCUCCAAA	0.000328 ± 0.00011
AUAAAAGUGCCAGAACUACAGAAAUGUAGUUGACGAGGAGGAGGUGUAUCGAAUUUUCGGUGGAUGCCUCCAAA	< 1e-05
AUAAAAGCUCCAGGACUACAGAAAUGUAGUUGACGAGGAGGAGGUUUAUCGAAUUUUCGGAGGGUGCCUGCAAA	6.76e-05 ± 2.1e-05
AUAAAAGCGCCCGAACUACAGAAAUGUAGUUGACGAGGAGGAGGUUUAUCGAAUUAUGGGCGGAUGCCUCCAAA	0.00043 ± 8.1e-05
AUAAAAGCGCCAGAACUACAGAAAUGUAGUUGACGACGAGGAGGAUUAUCGAAUUUUCGUCGGCUGCCUCCAAA	< 1e-05
AUAAAAAGGCCAGAACUACAGAAAUGUAGUUGACGAGGAGGAGGUUUAUCGAAUUUUCGGCGUAUGCCUCCAAA	< 1e-05
AUAAAAGCGCCAGAACUACAGAAAUGUACUUGACGAGGAGGAGGUUUAUCUAAUUUUCGGCGGAUGGCUCCAAA	5.96e-05 ± 2.8e-05
AUAAAAGCGCCAAAACUACAGAAAUGUAGUUGCCGAGGAGGAGGUUUAUCGAAUUUUCGGCGGAUGCCUUCAAA	< 1e-05
AUAAAAGCGCCAGAACUACAGAAAUGUAGUUUUCGAGGAGUAGGUUUAUCGAAUUUUCGGCGGAUGCCUCCAAA	< 1e-05
AUAAAAUCGCCAGAACUACAGAAAUGUAGUUAACGAGGAGGAGGUUUGUCGAAAUUUCGGCGGAUGCCUCCAAA	< 1e-05
AUAAAAGCGCCAGAACUACAGAAAUGUAGUGGACGAGGAGGAGGUUUUUCGCAUUUUCGGCGGAUGCCUCCAAA	< 1e-05
AUAAAAUCGCCCGAAUUACAGAAAUGUAGUUGACGAGGAGGAGGUUUAUCGAAUUUUCGACGGAUGCCUCCAAA	< 1e-05
AUAAAAUCGCCAGAACUACAGAAAUGUAGUUGACGAGGAGGAAGUUGAUCGAAUUGUCGGCGGAUGCCUCCAAA	< 1e-05
AUAAAAGCGUCAGAACUACAGAAAUGUAUUUGACGAGGGGGAGGUUUAUCGAAUUUCCGGCGGAUGCCUCAAAA	< 1e-05
AUAAAAGUGCCAGAUCUACAGAAAUGUAGUCGACGGGGAGGAGGUAUAUCGUAUUUUAGGCGGAUGUCUUCAAA	< 1e-05
AUAAAAGCGCCAGAAGUACAGAAAUGUAGUAGAAGAGGAGGAGGUUUAUCGAAUUUUCGGCGGAUGCCUCCAAA	< 1e-05
AUAAAAGCGCCAUAUCUACAGAAAUGUAGUUGACGAGGAGGAGGUUUAUCGAAUUUUCGGCGGAUGCCUCUAAA	5.99e-05 ± 2.5e-05
AUAAAAGCGCCGGAGCUACAGAAAUGUAGUUGACGAGGAGGAGAUUUAUCGAAAUUUCGGUGGAUGCCUCCAAA	< 1e-05
